For 46 variants, abundance fitness results are on record in the Human Domainome abundance scans (Beltran et al. 2025).

B1: Intersectin-1, residues 1156 to 1213; numbered along this chain, Q15811 (parent)
chain: AVCQVIGMYDYTAQNDDELAFNKGQIINVLNKEDPDWWKGEVNGQVGLFPSNYVKLTT

± gives the uncertainty stated by the source.

In this data set the parent is B1. Kind of data set: abundance fitness (aPCA) (normalised: wild type 0, dead -1); higher = more abundant; growth selection in yeast, the domain comes from the species named. The conditions noted are these: Homo sapiens.
As for AVCVVIGMYDYTAQNDDELAFNKGQIINVLNKEDPDWWKGEVNGQVGLFPSNYVKLTT [Q4V], the abundance fitness was -0.488 ± 0.13.

As to AVCMVIGMYDYTAQNDDELAFNKGQIINVLNKEDPDWWKGEVNGQVGLFPSNYVKLTT [Q4M], the abundance fitness is -0.527 ± 0.16.

On to AVCWVIGMYDYTAQNDDELAFNKGQIINVLNKEDPDWWKGEVNGQVGLFPSNYVKLTT [Q4W], for which the abundance fitness was -0.451 ± 0.15.

AVCQPIGMYDYTAQNDDELAFNKGQIINVLNKEDPDWWKGEVNGQVGLFPSNYVKLTT [V5P]: the abundance fitness is -0.94 ± 0.18.

As to AVCQEIGMYDYTAQNDDELAFNKGQIINVLNKEDPDWWKGEVNGQVGLFPSNYVKLTT [V5E], the abundance fitness is -0.843 ± 0.28.

Turning to AVCQRIGMYDYTAQNDDELAFNKGQIINVLNKEDPDWWKGEVNGQVGLFPSNYVKLTT [V5R], the abundance fitness was -0.831 ± 0.12.

Regarding AVCQIIGMYDYTAQNDDELAFNKGQIINVLNKEDPDWWKGEVNGQVGLFPSNYVKLTT [V5I], the abundance fitness was -0.823 ± 0.16.

AVCQGIGMYDYTAQNDDELAFNKGQIINVLNKEDPDWWKGEVNGQVGLFPSNYVKLTT [V5G]: the abundance fitness is -0.309 ± 0.096.

Consider AVCQMIGMYDYTAQNDDELAFNKGQIINVLNKEDPDWWKGEVNGQVGLFPSNYVKLTT [V5M], for which the abundance fitness is -0.737 ± 0.17.

AVCQDIGMYDYTAQNDDELAFNKGQIINVLNKEDPDWWKGEVNGQVGLFPSNYVKLTT [V5D]: the abundance fitness was -0.711 ± 0.17.

For the variant AVCQKIGMYDYTAQNDDELAFNKGQIINVLNKEDPDWWKGEVNGQVGLFPSNYVKLTT [V5K], the abundance fitness is -0.708 ± 0.18.

As for AVCQQIGMYDYTAQNDDELAFNKGQIINVLNKEDPDWWKGEVNGQVGLFPSNYVKLTT [V5Q], the abundance fitness is -0.673 ± 0.29.

For the variant AVCQLIGMYDYTAQNDDELAFNKGQIINVLNKEDPDWWKGEVNGQVGLFPSNYVKLTT [V5L], the abundance fitness is -0.891 ± 0.15.

As to AVCQSIGMYDYTAQNDDELAFNKGQIINVLNKEDPDWWKGEVNGQVGLFPSNYVKLTT [V5S], the abundance fitness is -0.813 ± 0.12.

For AVCQAIGMYDYTAQNDDELAFNKGQIINVLNKEDPDWWKGEVNGQVGLFPSNYVKLTT [V5A], the abundance fitness was -0.045 ± 0.1.

Consider AVCQFIGMYDYTAQNDDELAFNKGQIINVLNKEDPDWWKGEVNGQVGLFPSNYVKLTT [V5F], for which the abundance fitness was -0.772 ± 0.19.

AVCQCIGMYDYTAQNDDELAFNKGQIINVLNKEDPDWWKGEVNGQVGLFPSNYVKLTT [V5C]: the abundance fitness was found to be 0.005 ± 0.12.

In the case of AVCQHIGMYDYTAQNDDELAFNKGQIINVLNKEDPDWWKGEVNGQVGLFPSNYVKLTT [V5H], the abundance fitness was -0.644 ± 0.32.

On to AVCQNIGMYDYTAQNDDELAFNKGQIINVLNKEDPDWWKGEVNGQVGLFPSNYVKLTT [V5N], for which the abundance fitness is -0.902 ± 0.19.

As for AVCQWIGMYDYTAQNDDELAFNKGQIINVLNKEDPDWWKGEVNGQVGLFPSNYVKLTT [V5W], the abundance fitness is -0.574 ± 0.15.

In the case of AVCQTIGMYDYTAQNDDELAFNKGQIINVLNKEDPDWWKGEVNGQVGLFPSNYVKLTT [V5T], the abundance fitness was -0.526 ± 0.15.

With AVCQYIGMYDYTAQNDDELAFNKGQIINVLNKEDPDWWKGEVNGQVGLFPSNYVKLTT [V5Y], the abundance fitness was -0.309 ± 0.14.

Turning to AFCQVIGMYDYTAQNDDELAFNKGQIINVLNKEDPDWWKGEVNGQVGLFPSNYVKLTT [V2F], the abundance fitness is -0.268 ± 0.18.

Consider AHCQVIGMYDYTAQNDDELAFNKGQIINVLNKEDPDWWKGEVNGQVGLFPSNYVKLTT [V2H], for which the abundance fitness is -0.105 ± 0.21.

Take ANCQVIGMYDYTAQNDDELAFNKGQIINVLNKEDPDWWKGEVNGQVGLFPSNYVKLTT [V2N]: the abundance fitness is -0.223 ± 0.29.

Take ATCQVIGMYDYTAQNDDELAFNKGQIINVLNKEDPDWWKGEVNGQVGLFPSNYVKLTT [V2T]: the abundance fitness was -0.187 ± 0.16.

Consider APCQVIGMYDYTAQNDDELAFNKGQIINVLNKEDPDWWKGEVNGQVGLFPSNYVKLTT [V2P], for which the abundance fitness is -0.222 ± 0.15.

AACQVIGMYDYTAQNDDELAFNKGQIINVLNKEDPDWWKGEVNGQVGLFPSNYVKLTT [V2A]: the abundance fitness was -0.492 ± 0.15.

With AYCQVIGMYDYTAQNDDELAFNKGQIINVLNKEDPDWWKGEVNGQVGLFPSNYVKLTT [V2Y], the abundance fitness is -0.264 ± 0.27.

As to AECQVIGMYDYTAQNDDELAFNKGQIINVLNKEDPDWWKGEVNGQVGLFPSNYVKLTT [V2E], the abundance fitness is -0.074 ± 0.17.

Regarding AQCQVIGMYDYTAQNDDELAFNKGQIINVLNKEDPDWWKGEVNGQVGLFPSNYVKLTT [V2Q], the abundance fitness was -0.466 ± 0.23.

Turning to ASCQVIGMYDYTAQNDDELAFNKGQIINVLNKEDPDWWKGEVNGQVGLFPSNYVKLTT [V2S], the abundance fitness was -0.233 ± 0.14.

Turning to ALCQVIGMYDYTAQNDDELAFNKGQIINVLNKEDPDWWKGEVNGQVGLFPSNYVKLTT [V2L], the abundance fitness was -0.375 ± 0.11.

As to AKCQVIGMYDYTAQNDDELAFNKGQIINVLNKEDPDWWKGEVNGQVGLFPSNYVKLTT [V2K], the abundance fitness was -0.06 ± 0.25.

AWCQVIGMYDYTAQNDDELAFNKGQIINVLNKEDPDWWKGEVNGQVGLFPSNYVKLTT [V2W]: the abundance fitness is -0.384 ± 0.19.

Turning to AGCQVIGMYDYTAQNDDELAFNKGQIINVLNKEDPDWWKGEVNGQVGLFPSNYVKLTT [V2G], the abundance fitness is -0.115 ± 0.089.

As for ARCQVIGMYDYTAQNDDELAFNKGQIINVLNKEDPDWWKGEVNGQVGLFPSNYVKLTT [V2R], the abundance fitness was -0.003 ± 0.095.

As to ADCQVIGMYDYTAQNDDELAFNKGQIINVLNKEDPDWWKGEVNGQVGLFPSNYVKLTT [V2D], the abundance fitness is -0.142 ± 0.21.

Regarding AMCQVIGMYDYTAQNDDELAFNKGQIINVLNKEDPDWWKGEVNGQVGLFPSNYVKLTT [V2M], the abundance fitness was -0.205 ± 0.17.

With ACCQVIGMYDYTAQNDDELAFNKGQIINVLNKEDPDWWKGEVNGQVGLFPSNYVKLTT [V2C], the abundance fitness is -0.357 ± 0.18.

Turning to DVCQVIGMYDYTAQNDDELAFNKGQIINVLNKEDPDWWKGEVNGQVGLFPSNYVKLTT [A1D], the abundance fitness is -0.322 ± 0.37.

With RVCQVIGMYDYTAQNDDELAFNKGQIINVLNKEDPDWWKGEVNGQVGLFPSNYVKLTT [A1R], the abundance fitness is -0.1 ± 0.35.

For TVCQVIGMYDYTAQNDDELAFNKGQIINVLNKEDPDWWKGEVNGQVGLFPSNYVKLTT [A1T], the abundance fitness was -0.213 ± 0.23.

For the variant EVCQVIGMYDYTAQNDDELAFNKGQIINVLNKEDPDWWKGEVNGQVGLFPSNYVKLTT [A1E], the abundance fitness was -0.082 ± 0.17.

For the variant SVCQVIGMYDYTAQNDDELAFNKGQIINVLNKEDPDWWKGEVNGQVGLFPSNYVKLTT [A1S], the abundance fitness was 0.127 ± 0.43.

Regarding VVCQVIGMYDYTAQNDDELAFNKGQIINVLNKEDPDWWKGEVNGQVGLFPSNYVKLTT [A1V], the abundance fitness is -0.068 ± 0.18.
